Reference: paper PMC4073121

How the values were obtained:
[1] = biological target: bfloGFPa1, green fluorescent protein of Amphioxus (Branchiostoma floridae) (Branchiostoma floridae); experiment: SEC; size exclusion chromatography of the purified protein (Fig. S1); column and buffer not told
[2] = biological target: bfloGFPc1, green fluorescent protein of Amphioxus (Branchiostoma floridae) (Branchiostoma floridae); experiment: as above

Q: With “bfloGFPa1, green fluorescent protein of Amphioxus (Branchiostoma floridae) (natural protein)” as the substance, how does the stoichiometry N [1] read?
A: The stoichiometry N was 2.

Q: With “bfloGFPc1, green fluorescent protein of Amphioxus (Branchiostoma floridae) (natural protein)” as the substance, how does the stoichiometry N [2] read?
A: Its stoichiometry N is 2.
